Assay results taken from the Human Domainome abundance scans (Beltran et al. 2025).
± gives the uncertainty stated by the source.

B1: Tumor protein 63, residues 545 to 610; numbered along this chain, Q9H3D4 (parent)
chain: TDCSIVSFLARLGCSSCLDYFTTQGLTTIYQIEHYSMDDLASLKIPEQFRHAIWKGILDHRQLHEF

Variants of: B1
Assay: abundance fitness (aPCA) (normalised: wild type 0, dead -1); higher = more abundant; growth selection in yeast, the domain comes from the species named
Settings: Homo sapiens

Abundance fitness, by site and new letter:
S42: T -0.01 ± 0.026, V -0.011 ± 0.023, W -0.097 ± 0.036, Q -0.001 ± 0.038, Y -0.069 ± 0.045
K44: Y -0.083 ± 0.037, M -0.039 ± 0.033, N -0.021 ± 0.045, Q -0.014 ± 0.033, W -0.154 ± 0.024, I -0.4 ± 0.045, V -0.23 ± 0.026, H -0.075 ± 0.046, L -0.076 ± 0.023, F -0.081 ± 0.031, C -0.052 ± 0.026, S -0.015 ± 0.022, D -0.011 ± 0.038, E 0.002 ± 0.046, G 0.013 ± 0.022, A -0.037 ± 0.025, T -0.061 ± 0.025, R -0.014 ± 0.02
H51: M -0.009 ± 0.027, K -0.012 ± 0.031, P -0.031 ± 0.033, V -0.034 ± 0.022, E 0.005 ± 0.038, C -0.034 ± 0.029, A -0.022 ± 0.025, Q 0.005 ± 0.035, F -0.052 ± 0.044, D -0.028 ± 0.036, S 0.013 ± 0.02, Y -0.075 ± 0.045, R -0.031 ± 0.018, G -0.023 ± 0.02, L -0.029 ± 0.024, T 0.003 ± 0.026, I -0.079 ± 0.041, W -0.058 ± 0.025
Q62: N -0.056 ± 0.039, R 0.006 ± 0.02, K -0.021 ± 0.032, G -0.023 ± 0.017, H -0.011 ± 0.031, L -0.039 ± 0.027, A -0.011 ± 0.025, E 0.013 ± 0.04, D -0.03 ± 0.033, S -0.025 ± 0.025, I -0.151 ± 0.042, T -0.023 ± 0.028, V -0.051 ± 0.025
E47: C -0.076 ± 0.052, P -0.009 ± 0.028, N -0.011 ± 0.058, I -0.045 ± 0.036, S -0.02 ± 0.021, L -0.022 ± 0.029, Y -0.002 ± 0.037, H -0.067 ± 0.055, A -0.014 ± 0.025, G 0.041 ± 0.022, Q -0.004 ± 0.037, R -0.054 ± 0.027, M -0.04 ± 0.05, D 0.012 ± 0.038, T -0.036 ± 0.032, W -0.08 ± 0.024, F -0.127 ± 0.053
P46: V -0.922 ± 0.079, N -0.396 ± 0.043, E -0.155 ± 0.043, D -0.283 ± 0.054, H -0.531 ± 0.05, S -0.351 ± 0.029, I -1.01 ± 0.1, Y -1.12 ± 0.47, G -0.289 ± 0.023, W -1.1 ± 0.26, F -0.913 ± 0.099, Q -0.387 ± 0.041, K -0.384 ± 0.052, L -0.976 ± 0.065, M -0.928 ± 0.084, R -0.66 ± 0.031, T -0.46 ± 0.033, A -0.406 ± 0.035
I45: Q -0.965 ± 0.15, P -0.865 ± 0.086, A -0.721 ± 0.043, C -0.283 ± 0.037, R -1.02 ± 0.067, E -0.676 ± 0.06, Y -0.821 ± 0.09, G -0.913 ± 0.065, L -0.034 ± 0.021, D -0.982 ± 0.093, M -0.143 ± 0.031, S -1.04 ± 0.057, W -0.967 ± 0.062, F -0.358 ± 0.036, T -0.588 ± 0.041, V -0.021 ± 0.023, K -0.72 ± 0.078, H -0.925 ± 0.2
I53: D -0.907 ± 0.14, T -0.787 ± 0.064, Y -0.821 ± 0.089, M -0.403 ± 0.046, F -0.921 ± 0.089, L -0.117 ± 0.025, G -0.979 ± 0.055, N -0.783 ± 0.1, Q -0.99 ± 0.14, E -0.893 ± 0.063, R -0.945 ± 0.079, K -0.25 ± 0.13, P -1.07 ± 0.12, C -0.528 ± 0.024, S -0.918 ± 0.057, W -0.62 ± 0.081, H -0.887 ± 0.071
Q48: G -0.025 ± 0.02, A -0.024 ± 0.023, N -0.006 ± 0.05, M -0.028 ± 0.034, I -0.052 ± 0.056, W -0.203 ± 0.037, V -0.027 ± 0.022, S -0.038 ± 0.025, R -0.013 ± 0.021, Y -0.078 ± 0.043, K -0.015 ± 0.036, P -0.006 ± 0.044, E 0.035 ± 0.033, C -0.064 ± 0.03, T -0.023 ± 0.034, L -0.063 ± 0.027, D -0.04 ± 0.038, H -0.005 ± 0.057
H60: L -0.018 ± 0.023, D -0.13 ± 0.04, W -0.017 ± 0.038, V 0 ± 0.028, P -0.38 ± 0.042, M -0.011 ± 0.025, S -0.077 ± 0.027, R 0.012 ± 0.026, N -0.015 ± 0.035, C -0.004 ± 0.037, T -0.027 ± 0.032, E -0.077 ± 0.05, F -0.003 ± 0.045, Y -0.014 ± 0.037, G -0.092 ± 0.044, I -0.045 ± 0.042, Q -0.02 ± 0.059, K -0.064 ± 0.03, A -0.019 ± 0.037
F49: E -0.007 ± 0.036, I -0.168 ± 0.035, W -0.052 ± 0.036, Q -0.023 ± 0.028, M -0.014 ± 0.05, K -0.027 ± 0.047, G -0.174 ± 0.027, P -0.061 ± 0.033, T -0.127 ± 0.026, N -0.058 ± 0.037, S -0.026 ± 0.026, D -0.021 ± 0.035, C -0.047 ± 0.031, H -0.004 ± 0.042, L -0.059 ± 0.025, V -0.113 ± 0.021
R50: H -0.03 ± 0.084, F -0.149 ± 0.07, A -0.092 ± 0.027, T -0.056 ± 0.028, Y -0.174 ± 0.036, M -0.002 ± 0.029, D -0.712 ± 0.074, K -0.067 ± 0.048, E -0.159 ± 0.034, W -0.128 ± 0.027, Q -0.067 ± 0.035, S -0.102 ± 0.025, P -0.848 ± 0.072, L -0.036 ± 0.022, G -0.274 ± 0.023, C -0.052 ± 0.043
G56: H -0.363 ± 0.061, Q -0.307 ± 0.043, R -0.452 ± 0.02, W -0.811 ± 0.063, S -0.142 ± 0.022, C -0.472 ± 0.047, A -0.075 ± 0.03, N -0.361 ± 0.035, F -0.649 ± 0.061, Y -0.505 ± 0.036, M -0.546 ± 0.046, T -0.541 ± 0.042, L -0.77 ± 0.051, D -0.446 ± 0.038, V -0.676 ± 0.041, E -0.239 ± 0.04, I -0.831 ± 0.12, K -0.447 ± 0.075
D59: F -0.09 ± 0.031, T -0.111 ± 0.04, I -0.084 ± 0.034, C -0.058 ± 0.037, H -0.024 ± 0.055, K -0.06 ± 0.052, W -0.161 ± 0.027, Q -0.027 ± 0.045, Y -0.054 ± 0.042, G -0.02 ± 0.022, R -0.087 ± 0.024, L -0.074 ± 0.023, E -0.006 ± 0.027, V -0.034 ± 0.022, A -0.009 ± 0.022, M -0.066 ± 0.034, N -0.079 ± 0.04
I57: F -0.203 ± 0.04, P -1.04 ± 0.095, L -0.025 ± 0.03, H -0.899 ± 0.057, E -0.887 ± 0.11, K -0.51 ± 0.043, Q -0.611 ± 0.074, A -0.369 ± 0.03, G -0.781 ± 0.034, Y -0.918 ± 0.086, W -0.895 ± 0.1, D -0.962 ± 0.089, N -0.799 ± 0.082, M -0.105 ± 0.03, C -0.107 ± 0.035, T -0.323 ± 0.025, V -0.082 ± 0.023
L58: V -0.006 ± 0.03, E -0.015 ± 0.03, M -0.06 ± 0.043, G 0.002 ± 0.027, P -0.272 ± 0.028, N -0.039 ± 0.074, C 0.01 ± 0.041, T 0.002 ± 0.027, Y 0.026 ± 0.045, F -0.034 ± 0.029, K -0.001 ± 0.043, I 0 ± 0.057, R 0.006 ± 0.024, A -0.01 ± 0.022, S -0.007 ± 0.022
K55: Q -0.038 ± 0.071, M -0.048 ± 0.035, L -0.06 ± 0.025, D -0.072 ± 0.034, C -0.041 ± 0.035, E -0.018 ± 0.046, T -0.087 ± 0.045, S -0.057 ± 0.026, H -0.106 ± 0.082, G -0.057 ± 0.022, R -0.059 ± 0.02, N -0.038 ± 0.029, W -0.192 ± 0.032, V -0.071 ± 0.032, A -0.074 ± 0.027, F -0.212 ± 0.049, P -0.792 ± 0.088
L43: F -0.245 ± 0.031, D -0.503 ± 0.042, P -0.564 ± 0.042, K -0.283 ± 0.03, G -0.702 ± 0.034, Y -0.526 ± 0.056, H -0.296 ± 0.057, C -0.171 ± 0.044, M -0.105 ± 0.045, T -0.396 ± 0.033, R -0.304 ± 0.025, N -0.447 ± 0.057, V -0.134 ± 0.024, S -0.386 ± 0.028
W54: L 0.031 ± 0.067, V -0.078 ± 0.19, N -0.03 ± 0.12, G -0.248 ± 0.086, T -0.102 ± 0.26, S -0.055 ± 0.097, C -0.363 ± 0.16, H -0.301 ± 0.23, I -0.028 ± 0.14, R -0.133 ± 0.068, A -0.065 ± 0.086
A52: I -0.062 ± 0.052, P -0.043 ± 0.031, E -0.024 ± 0.029, C -0.015 ± 0.038, S -0.016 ± 0.027, D -0.064 ± 0.03, G -0.086 ± 0.021, H -0.068 ± 0.046, Y -0.116 ± 0.043, V -0.013 ± 0.023, F -0.049 ± 0.047, K -0.023 ± 0.038, N -0.092 ± 0.036, M -0.101 ± 0.051, W -0.076 ± 0.055, T -0.037 ± 0.033, L -0.024 ± 0.023
R61: P -0.022 ± 0.039, T -0.055 ± 0.031, N -0.05 ± 0.049, E -0.047 ± 0.035, I -0.062 ± 0.041, A -0.033 ± 0.029, M -0.077 ± 0.028, S -0.039 ± 0.028, C -0.073 ± 0.04, W -0.105 ± 0.032, D -0.121 ± 0.075, F -0.037 ± 0.033, V -0.067 ± 0.026, H -0.1 ± 0.054, K 0.058 ± 0.045
